{"source": "patent US20240101654A1", "binders": {"B1": {"name": "NI-502.4P3 (antibody, V domains shown)", "VH": "EVQLVQSGAEVKKPGESLKISCKVSGYDFSKYWIGWVRQMPGKGLEWMGLIYPGDSDTRYSPSLEGQVSISADKSISAAYLQFSSLKASDSAMYYCVRKGYSAYLGGWFDPWGQGTLVTVSS", "VL": "DIQLTQSPDSLAASLGERVTINCRSSQNIFYNSNNKNFLAWYQQKAGQSPKLLIYWASTRESGVPDRFSGSGSGTDFTLTISGLQAGDVAVYFCQQYFTDAPTFGGGTKVEIK"}}, "target": "recombinant full-length human Tau (Tau-441, (2N4R)) (human) (UniProt P10636)", "assay": "indirect ELISA, plate coated with recombinant full-length human Tau at 3 µg/ml", "data": [{"binder": "B1", "values": [{"measurement": "EC50", "value": 15, "unit": "nM"}]}]}
